B1: BADC1 AW box (-169/-142) (dsDNA)
DNA 1: CCTTCTTCTTTGGTAACTCCGTCCGCCG
DNA 2: CGGCGGACGGAGTTACCAAAGAAGAAGG
B2: BADC1m3 (dsDNA)
DNA 1: CCTTCTTCTTTGGTGCCTCCGTCCGCCG
DNA 2: CGGCGGACGGAGGCACCAAAGAAGAAGG
B3: BCCP2 AW box2 (-143/-115) (dsDNA)
DNA 1: CCTACTTCCTCGGTTTCATCGTCCACTG
DNA 2: CAGTGGACGATGAAACCGAGGAAGTAGG
B4: BADC2 AW box (-102/-75) (dsDNA)
DNA 1: TCGTCTTCCTCGTTCGTATCGTTCACTC
DNA 2: GAGTGAACGATACGAACGAGGAAGACGA
B5: Neg.C (dsDNA)
DNA 1: TGTTACAATCTAGTTACTATTCAGGGTA
DNA 2: TACCCTGAATAGTAACTAGATTGTAACA
B6: BADC3m3 (dsDNA)
DNA 1: GTTGTGTCCTCGTTTACATCGTTATCGT
DNA 2: ACGATAACGATGTAAACGAGGACACAAC
B7: BCCP2 AW box1 (-36/-8) (dsDNA)
DNA 1: TGGGTTTCTTCGTAAGCATCGAAATCAG
DNA 2: CTGATTTCGATGCTTACGAAGAAACCCA
B8: BADC2m3 (dsDNA)
DNA 1: TCGTCTTCCTCGTTCACATCGTTCACTC
DNA 2: GAGTGAACGATGTGAACGAGGAAGACGA
B9: BADC3 AW box (-94/-67) (dsDNA)
DNA 1: GTTGTGTCCTCGTTCATATCGTTATCGT
DNA 2: ACGATAACGATATGAACGAGGACACAAC
B10: BCCP1 AW box (-67/-40) (dsDNA)
DNA 1: TTGTGCTCTTTGGTTTCATCGAGAGAGA
DNA 2: TCTCTCTCGATGAAACCAAAGAGCACAA

The binders below were run against GFP-WRI1(58-240), WRINKLED1 DNA-binding domain (UniProt Q6X5Y6 58-240) (assay: MST).
Sequence of GFP-WRI1(58-240), WRINKLED1 DNA-binding domain (Q6X5Y6 58-240): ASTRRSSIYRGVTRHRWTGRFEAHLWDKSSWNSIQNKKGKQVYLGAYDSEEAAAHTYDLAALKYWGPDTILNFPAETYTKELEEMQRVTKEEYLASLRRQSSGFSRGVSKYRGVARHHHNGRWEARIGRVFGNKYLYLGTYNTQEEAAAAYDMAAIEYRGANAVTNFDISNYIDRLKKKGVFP

Binder | Kd | binding result
B1 | 0.27 ± 0.27 nM | 
B2 | 70.7 ± 27.8 nM | 
B3 | 6.68 ± 0.94 nM | 
B4 | 2.73 ± 0.72 nM | 
B5 |  | no binding
B6 | 22.9 ± 2.94 nM | 
B7 | 0.65 ± 0.39 nM | 
B8 | 149 ± 139 nM | 
B9 | 5.24 ± 2.59 nM | 
B10 | 23.9 ± 4.42 nM | 
